# Measurements published in publication PMC11148139.
# Read-outs that look alike come from different tables or passages of the source.
substance,measurement,setting,value
LDHA (lactate dehydrogenase A): C163A/C293A (2C-A),localisation_or_trafficking,other: S-nitrosylation at C163,decreases
same,localisation_or_trafficking,other: S-nitrosylation at C293,decreases
LDHA (lactate dehydrogenase A): C293A,enzymatic_activity,other: S-nitrosylation at C293,decreases
GCH1 (GTP cyclohydrolase I): S81D phosphomimetic,other,phosphorylation at S81,increases
LDHA (lactate dehydrogenase A): C163A,enzymatic_activity,other: S-nitrosylation at C163,decreases
